Laboratory results as given in patent publication US10815297B2, “Antagonists of IL17C for the treatment of inflammatory disorders” (MorphoSys AG, priority 2011, dated 2020).

How the values were obtained:
[1] = test system: TS-exposed mice (C57BL/6J), pulmonary inflammation; test: Tobacco smoke model, cells recovered in bronchoalveolar lavage; type: in vivo, mouse
Method: The response consisted of significant increases in the numbers of macrophages, epithelial cells, neutrophils and lymphocytes recovered in BAL.
Vehicle (PBS), MOR12743 and MOR03207 were administered i.p., 1 h prior to TS-exposure on days 1, 4, 7 and 10 of the study. Roflumilast was administered p.o., 1 h prior to each TS-exposure.
In this exposure protocol, mice were exposed in groups of 5 in clear polycarbonate chambers (27 cm×16 cm×12 cm). The TS from ‘Marlboro 100’ cigarettes was allowed to enter the exposure chambers at a flow rate of 100 mL/min. In order to minimise any potential problems caused by repeated exposure to a high level of TS, the exposure period to TS was increased initially from 25 minutes at the start of the study (day 1) to a maximum of 45 minutes on day 3. The exposure schedule used in this study was as follows:
The trachea was cannulated using a 10 mm long Luer fitting stainless steel cannula. Phosphate buffered saline (PBS) was used as the lavage fluid. A volume of 0.4 mL was gently instilled and withdrawn 3 times using a 1 mL syringe and then placed in an Eppendorf tube and kept on ice prior to subsequent determinations.
Lavage fluid was separated from cells by centrifugation (6 min at 3400 rpm, RCF=3070×g—‘Eppendorf Mini Spin’) and the supernatant decanted and frozen for possible subsequent analysis. The cell pellet was re-suspended in a known volume of PBS and total cell numbers calculated by counting a stained (Turks stain) aliquot under a microscope using a haemocytometer.
The residual cell pellet was diluted to approximately 10^5 cells per mL. A volume of 500 μl was placed in the funnel of a cytospin slide and centrifuged for 8 min at 800 rpm, RCF=72.26×g (Shandon Cytospin 3). The slide was air-dried and stained using Wrights/Giemsa stain as per the proprietary instructions. When dried and cover-slipped, differential cell-counts were performed using light microscopy. Approximately 400 cells were counted for each slide. Cells were identified using standard morphometric techniques.
In this study, 4 groups of mice were subjected to daily TS-exposure for 11 days and were sacrificed on the 12th day, 24 h after the final TS-exposure. Three groups received either vehicle (D-PBS), MOR12743 or MOR03207, i.p., 1 h prior to TS-exposure on days 1, 4, 7 and 10 of the study. One group received Roflumilast, p.o., 1 h prior to each TS-exposure. A further group was exposed to air for 11 consecutive days and sacrificed on the 12th day, 24 h after the final air-exposure. This group received vehicle (D-PBS), i.p., 1 h prior to exposure on days 1, 4, 7 and 10 of the study. For all groups n=10.
All mice were killed on day 12, by intra-peritoneal barbiturate anaesthetic overdose, 24 h after final exposure to air or TS. A blood sample was taken over heparin from the sub-clavian vein and the plasma separated by centrifugation and stored at −40° C. A BAL was performed using 0.4 mL of phosphate buffered saline (PBS). Cells recovered from the BAL were used for the total cell and differential cell counts. The BAL supernatants and remaining cell pellet were stored at −40° C. and −80° C. respectively for possible future analysis. Following BAL, the cannula was left tied in place. The heart and lungs were removed after gently opening the thorax and cutting down either side of the sternum and ribs. The left lobe was tied off, removed, snap-frozen and stored at −80° C. The right lobe was inflated with 10% phosphate buffered formalin (PBF) to a pressure of 18 cm of PBF for 20 minutes. The trachea was then ligated below the cannula and the cannula removed. The heart, lung & trachea were immersed in PBF.
The data were therefore initially subjected to a one-way analysis of variance test (ANOVA), followed by a Bonferroni correction for multiple comparisons in order to test for statistically significant differences between treatment groups. A “p” value of <0.05 was considered to be statistically significant. […]

[2] = test system: BALB/c female mice, LPS-induced acute lung neutrophilia; test: Intranasal instillation of LPS, mouse model of acute lung neutrophilia; type: in vivo; conditions: single treatment 5 mg/kg i.p. 24 hours before LPS instillation; BAL 24 hours after LPS
Method: Two independent studies were conducted with one negative mAb and two positive mAbs in the intranasal instillation of Lipopolysaccharide (LPS) mouse model of acute lung neutrophilia, a model which mimics some relevant aspects of COPD (Chronic Obstructive Pulmonary Disease). The effects were measured by Broncho Alveolar Lavage (BAL) inflammatory cell counting.
Several groups of mice were treated with different antibodies and Dexamethasone and compared to the mice subjected to LPS only.
BALB/c female mice from Harlan (France) were used in the study. Mice weight was around 20 g.
Mice were anesthetized by isoflurane inhalation. During the breathing, LPS was instilled intranasally. After 24 h, mice were anesthetized intra-peritoneally (IP) and Broncho Alveolar Lavage procedure was performed. Mice were anesthetized by injection of anaesthetic solution of 0.1 mL per 10 g of the mouse weight. The anaesthetic solution was composed of 18 ml 0.9% NaCl, 0.5 mL xylazine (5 mg/Kg) and 1.5 mL ketamine (75 mg/Kg).
The trachea was exposed through midline incision and canulated (with a mice catheter). BAL was performed twice using 1 mL of sterile PBS buffer. […] The cells were counted using a cell counter (Vet abc, France). […]
For all groups, BAL was performed 24 hours after LPS administration and cell counts were measured.
The results were analyzed using Student t-test. […]

[3] = 5 mg/kg i.p. on days 1, 4, 7 & 10

B1: MOR12743: anti-mouse IL17C HuCAL antibody; CDRs SEQ ID NO: 31-36, VL 37, VH 38; human/mouse chimeric IgG2a (antibody, V domains shown)
VH: QVQLVQSGAEVKKPGASVKVSCKASGYTFTSNFIHWVRQAPGQGLEWMGWISPYNGDTNYAQKFQGRVTMTRDTSISTAYMELSRLRSEDTAVYYCARESVYYGSDYGYNGMDIWGQGTLVTVSS
VL: DIELTQPPSVSVSPGQTASITCSGDNLGEEYVSWYQQKPGQAPVLVIYDDTKRPSGIPERFSGSNSGNTATLTISGTQAEDEADYYCASWDLWSVEVFGGGTKLTVLGQ
modifications: mouse IgG2a constant regions; VH; VL
Inhibition of epithelial cells in BAL [1, 3]: 52% | Inhibition of lymphocytes in BAL [1, 3]: 24% | Inhibition of macrophages in BAL [1, 3]: 6% | Inhibition of neutrophils in BAL [1, 3]: 48% | Inhibition of total cells in BAL ([1]; 5 mg/kg i.p. on days 1, 4, 7 & 10, 1 h prior to TS-exposure, BAL 24 h after last of 11 daily exposures): 26% | inhibition of the recruitment of inflammatory cells into the BALF [2]: inhibited significantly
